Test results taken from patent US8618251.

Legend:
[1] = molecular target: soluble hFcγRIIA^131H (human) (UniProt P12318); assay: SPR Biacore T100, steady state, antibody immobilised
[2] = molecular target: soluble hFcγRIIA^131R (human) (UniProt P12318); assay: as above
soluble hFcγRIIB (human) [3] = molecular target: soluble hFcγRIIB (human) (UniProt P31994); assay: as above
[4] = molecular target: soluble hFcγRIIA^131H (human) (UniProt P12318); assay: SPR Biacore T100; reference of the fold not given
[5] = molecular target: soluble hFcγRIIA^131R (human) (UniProt P12318); assay: SPR Biacore T100; reference of the fold not given
soluble hFcγRIIB (human) [6] = molecular target: soluble hFcγRIIB (human) (UniProt P31994); assay: SPR Biacore T100; reference of the fold not given

Chain of soluble hFcγRIIB (human) (P31994 43-217 limits assumed): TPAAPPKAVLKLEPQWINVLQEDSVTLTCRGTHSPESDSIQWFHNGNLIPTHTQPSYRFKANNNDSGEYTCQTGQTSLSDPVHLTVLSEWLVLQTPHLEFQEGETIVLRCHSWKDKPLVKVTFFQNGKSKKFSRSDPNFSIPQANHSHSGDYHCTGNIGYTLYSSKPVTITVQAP
Chain of soluble hFcγRIIA^131R (human) (P12318 34-217 H167R): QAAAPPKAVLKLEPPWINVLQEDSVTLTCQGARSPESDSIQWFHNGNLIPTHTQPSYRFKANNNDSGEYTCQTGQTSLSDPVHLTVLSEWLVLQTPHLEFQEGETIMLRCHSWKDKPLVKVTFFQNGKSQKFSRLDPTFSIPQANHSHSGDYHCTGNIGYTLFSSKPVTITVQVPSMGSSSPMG
Chain of soluble hFcγRIIA^131H (human) (P12318 34-217): as the sequence (P12318 34-217 H167R) above, with R134H counted along it

B1: 4-4-20 hIgG1 Fc mutant L163P-S183G-K222E-G236A-N276D-S298G-T299A-D312G (antibody, part only; not given: 4-4-20 variable domains, not shown: another chain or arm of the molecule)
constant: ASTKGPSVFPLAPSSKSTSGGTAALGCLVKDYFPEPVTVSWNSGAPTSGVHTFPAVLQSSGLYSLGSVVTVPSSSLGTQTYICNVNHKPSNTKVDKRVEPKSCDETHTCPPCPAPELLAGPSVFLFPPKPKDTLMISRTPEVTCVVVDVSHEDPEVKFDWYVDGVEVHNAKTKPREEQYNGAYRVVSVLTVLHQGWLNGKEYKCKVSNKALPAPIEKTISKAKGQPREPQVYTLPPSRDELTKNQVSLTCLVKGFYPSDIAVEWESNGQPENNYKTTPPVLDSDGSFFLYSKLTVDKSRWQQGNVFSCSVMHEALHNHYTQKSLSLSPGK
Kd [1]: 1340 nM
Kd [2]: 781 nM
Kd (soluble hFcγRIIB (human) [3]): 8480 nM
Fold change in affinity [4]: 2.6 fold
Fold change in affinity [5]: 7.4 fold
Fold change in affinity (soluble hFcγRIIB (human) [6]): 1.3 fold
